Source: patent US20170355769A1 (AbbVie / Abbott, published 2017)
Numbering of substitutions follows the chain as printed. Where two headings read alike, the source gives them in different places.

T1: hB7-H3 (ELISA antigen of Tables 17 and 20) (human, UniProt Q5ZPR3 29-466, limits assumed)
T1 sequence: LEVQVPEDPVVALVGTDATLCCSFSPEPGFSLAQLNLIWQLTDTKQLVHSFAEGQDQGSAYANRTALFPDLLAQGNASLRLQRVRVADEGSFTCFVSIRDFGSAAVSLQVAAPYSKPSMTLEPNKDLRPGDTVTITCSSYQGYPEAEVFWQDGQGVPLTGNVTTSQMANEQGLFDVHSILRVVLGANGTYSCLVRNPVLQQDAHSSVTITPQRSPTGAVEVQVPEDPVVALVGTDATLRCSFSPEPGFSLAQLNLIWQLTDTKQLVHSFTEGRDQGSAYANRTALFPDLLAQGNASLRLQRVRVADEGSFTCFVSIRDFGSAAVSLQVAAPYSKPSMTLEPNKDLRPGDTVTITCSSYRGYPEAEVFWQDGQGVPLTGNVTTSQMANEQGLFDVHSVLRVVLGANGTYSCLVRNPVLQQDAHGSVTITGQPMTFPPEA

T2: Human full length B7-H3 (human, UniProt Q5ZPR3 29-534)
T2 sequence: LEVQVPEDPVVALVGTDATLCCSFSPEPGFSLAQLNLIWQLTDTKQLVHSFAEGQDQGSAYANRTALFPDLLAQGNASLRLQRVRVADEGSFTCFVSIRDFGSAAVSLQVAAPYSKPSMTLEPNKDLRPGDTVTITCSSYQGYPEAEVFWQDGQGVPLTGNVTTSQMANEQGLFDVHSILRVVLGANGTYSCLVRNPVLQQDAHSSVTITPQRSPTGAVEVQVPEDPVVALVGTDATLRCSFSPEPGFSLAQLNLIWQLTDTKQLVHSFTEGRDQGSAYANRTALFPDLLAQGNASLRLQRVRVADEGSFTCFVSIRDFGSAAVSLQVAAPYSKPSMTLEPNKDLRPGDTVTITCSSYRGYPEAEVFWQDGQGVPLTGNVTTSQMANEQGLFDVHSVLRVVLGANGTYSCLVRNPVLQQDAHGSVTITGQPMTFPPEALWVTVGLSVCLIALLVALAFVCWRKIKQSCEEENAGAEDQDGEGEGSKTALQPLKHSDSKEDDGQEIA

T3: Human B7-H3-ECD (His tag) (human, UniProt Q5ZPR3 29-461)
T3 construct: SPR analyte; also called huB7-H3; soluble ECD of human B7-H3
T3 sequence: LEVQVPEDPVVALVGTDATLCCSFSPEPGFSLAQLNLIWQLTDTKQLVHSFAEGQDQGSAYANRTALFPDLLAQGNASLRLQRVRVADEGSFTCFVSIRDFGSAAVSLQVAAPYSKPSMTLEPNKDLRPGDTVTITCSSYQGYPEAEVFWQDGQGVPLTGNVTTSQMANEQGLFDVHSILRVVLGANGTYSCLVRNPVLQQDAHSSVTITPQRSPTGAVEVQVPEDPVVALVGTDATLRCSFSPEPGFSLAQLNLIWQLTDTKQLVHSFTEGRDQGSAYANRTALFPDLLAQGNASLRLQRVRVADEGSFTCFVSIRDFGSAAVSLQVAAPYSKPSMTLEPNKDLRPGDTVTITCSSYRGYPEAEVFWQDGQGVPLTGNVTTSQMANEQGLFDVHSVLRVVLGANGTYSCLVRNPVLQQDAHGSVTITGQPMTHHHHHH

B1: huAb13v1-CZ (antibody, human IgG1, kappa, L234A L235A, V domains shown)
VH: EVQLQESGPGLVKPSETLSLTCAVTGYSITSGYSWHWIRQFPGNGLEWMGYIHSSGSTNYNPSLKSRISISRDTSKNQFFLKLSSVTAADTAVYYCAGYDDYFEYWGQGTTVTVSS
VL: DIQMTQSPSSLSASVGDRVTITCKASQNVGFNVAWYQQKPGKSPKALIYSASYRYSGVPSRFSGSGSGTDFTLTISSLQPEDFAEYFCQQYNWYPFTFGQGTKLEIKR
modifications: synthon CZ on reduced interchain Cys
notes: ADC, DAR 4.0
B2: huAb13v6-CZ (antibody, V domains shown)
VH: B1 VH
VL: DIQMTQSPSSLSASVGDRVTITCKASQNVGFNVAWYQQKPGKAPKLLIYSASYRYSGVPSRFSGSGSGTDFTLTISSLQPEDFATYFCQQYNWYPFTFGQGTKLEIK
modifications: synthon CZ on reduced interchain Cys
notes: ADC, DAR 3.6
B3: huAb13v5-CZ (antibody, V domains shown)
VH: B1 VH
VL: B2 VL with F87Y
modifications: synthon CZ on reduced interchain Cys
notes: ADC, DAR 3.4
B4: huAb3v2 (antibody, V domains shown)
VH: EVQLVQSGAEVKKPGSSVKVSCKASGYTFSSYWMHWVRQAPGQGLEWIGLIHPDSGSTNYNEMFKNRATLTVDRSTSTAYMELSSLRSEDTAVYYCAGGGRLYFDYWGQGTTVTVSS
VL: DIVMTQSPLSLPVTPGEPASISCRSSQSLVHSNGDTYLRWYLQKPGQSPQLLIYKVSNRFSGVPDRFSGSGSGTDFTLKISRVEAEDVGVYYCSQSTHVPYTFGGGTKVEIK
notes: humanized IgG
B5: chAb13 (antibody, IgG1, V domains shown)
VH: DVQLQESGPDLVKPSQSLSLTCTVTGYSITSGYSWHWIRQFPGNKLEWMGYIHSSGSTNYNPSLKSRISINRDTSKNQFFLQLNSVTTEDTATYYCAGYDDYFEYWGQGTTLTVSS
VL: DIVMTQSQKFMSTSVGDRVSVTCKASQNVGFNVAWYQQKPGQSPKALIYSASYRYSGVPDRFTGSGSGTDFTLTISNVQSEDLAEYFCQQYNSYPFTFGSGTKLEIK
notes: chimeric, huIgG1/k
B6: chAb13-CZ (antibody, IgG1, V domains shown)
VH: B5 VH
VL: B5 VL
modifications: synthon CZ on reduced interchain Cys

Experiments:
[1] = target: T1, hB7-H3 (ELISA antigen of Tables 17 and …); experiment: ELISA
Human full length B7-H3 [2] = target: T2, Human full length B7-H3; experiment: cell-based or functional assay
[3] = target: T4, Cynomolgous B7-H3 on cells (cynomolgus); experiment: FACS (Example 6 method)
T4 construct: whole, on cells; also called cyB7-H3; cyno B7-H3
Description: (§1) Cells were harvested from flasks when approximately 80% confluent using Gibco® Cell Dissociation Buffer. Cells were washed once in PBS/1% FBS (FACS buffer) then resuspended at 2.5×10⁶ cells/mL in FACS buffer. 100 μL of cells/well were added to a round bottom 96-well plate. 10 μL of a 10× concentration of mAb/ADC (final concentrations are indicated the figures). Wells were washed twice with FACS buffer and resuspended in 50 μL of secondary Ab (AlexaFluor 488) diluted in FACS buffer. The plate was incubated at 4° C. for one hour and washed twice with FACS buffer. Cells were resuspended in 100 μL of PBS/1% formaldehyde and analyzed on a Becton Dickinson LSRII flow cytometer. Data was analyzed using WinList flow cytometry analysis software.
(§2) Nine huAb13 variants described in Examples 17 and 18 were generated and tested for binding to B7-H3 by FACS (according to methods described in Example 6).

Human full length B7-H3 [4] = target: T2, Human full length B7-H3; experiment: FACS (Example 6 method)
Description: as §1, §2

[5] = target: T3, Human B7-H3-ECD (His tag); experiment: SPR Biacore, naked mAb
From the text: (§3) Biacore T200 SPR instruments were used to measure the binding kinetics of human B7-H3 (analyte) binding to various mAbs (ligands). The assay format was Fc-based capture via immobilized anti-mouse (Fc) (Pierce 31170) or immobilized anti-human (Fc) (Pierce 31125). A standard amine coupling protocol was employed to immobilize the capture reagents via primary amines to the carboxy-methyl (CM) dextran surface of CM5 sensorchips (Biacore); capture antibodies were coupled to a level of approximately 5000RU. For binding kinetic measurements the assay buffer was HBS-EP+ (Biacore): 10 mM Hepes, pH7.4, 150 mM NaCl, 3 mM EDTA, 0.05% polysorbate 20. During the assay, all measurements were referenced against the capture surface alone. Each assay cycle consisted of the following steps: 1) Capture of ligand to approximately 50RU; 2) Analyte injection over both reference and test surface, 240 μL at 80 μL/min, after which the dissociation was monitored for 900 seconds at 80 μL/min; 3) Regeneration of capture surface with low pH glycine. […] Data were processed and fit to a 1:1 binding model using Biacore T200 Evaluation Software to determine the binding kinetic rate constants, kₐ (on-rate) and kd (off-rate), and the equilibrium dissociation constant (affinity, KD).
These variants were further characterized for binding by SPR and as ADCs conjugated to the Bcl-xL inhibitor synthon (linker warhead) CZ. […] An ADC comprising chAb3 conjugated to synthon CZ was used as a control.

[6] = target: T3, Human B7-H3-ECD (His tag); experiment: SPR Biacore, naked mAb; remark: listed apart in the source
From the text: as §3

Human full length B7-H3 [7] = target: T2, Human full length B7-H3; experiment: FACS, NCI-H1650 cells
Description: To generate purified chimeric antibodies, expression vectors were transiently transfected into HEK293 6E suspension cell cultures in a ratio of 60% to 40% light to heavy chain construct. 1 mg/ml of polyethylenimine (PEI) or 2.6 μL/mL of Expifectamine was used to transfect the cells. Cell supernatants were harvested after five days in shaking flasks, spun down to pellet cells, and filtered through 0.22 μm filters to separate IgG from culture contaminants. Antibody-containing supernatants were purified on Akta Pure using protein A mAb SelectSure. Columns were equilibrated in PBS pH 7.4, supernatants were then passed through the column and a wash was performed with PBS pH 7.4. IgG were eluted with 0.1 M acetic acid pH 3.5 and collected in several aliquots. Fractions containing IgG were pooled and dialyzed in PBS overnight at 4° C.
as §1

[8] = target: T3, Human B7-H3-ECD (His tag); experiment: SPR Biacore, naked mAb; remark: listed apart in the source
From the text: as §3, with “KD). […]” for “KD).”

Human full length B7-H3 [9] = target: T2, Human full length B7-H3; experiment: FACS, cell surface human B7-H3 (as Example 6)
Method in brief: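 Harvested cells near 80% confluence, resuspended in PBS/1% FBS, were incubated with anti-B7-H3 mAb or ADC at varying final concentrations, then with AlexaFluor 488 secondary Ab at 4° C. for 1 h. Cells fixed in PBS/1% formaldehyde and binding read by flow cytometry.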

| Binder | EC50 [1] [nM] | EC50 [3] [nM] | EC50 (Human full length B7-H3 [4]) [nM] | also measured |
| --- | --- | --- | --- | --- |
| B1 | 0.12 | 10 |  | EC50 nM H1650 (tumor cell cytotoxicity) (Human full length B7-H3 [2]): 0.18 nM |
| B2 | 0.14 | 12.9 | 5.83 |  |
| B3 | 0.19 | 10.6 | 5.21 |  |
| B4 |  |  |  | Kd [5]: 0.69 nM; Kd [6]: 2.3 nM |
| B5 |  |  |  | EC50 (Human full length B7-H3 [7]): 1.53 nM; Kd [8]: 5.7 nM |
| B6 | 0.26 | 18.4 | 6.27 | EC50 (Human full length B7-H3 [9]): 1.49 nM |
